Laboratory results: US7033773B1, “Screening assays for G protein coupled receptor agonists and antagonists” (The General Hospital Corporation, priority 1997, dated 2006)
Where no end group is shown, it is not given here.

Experiments:
human PTH/PTHrP receptor [1] = biological target: T1, human PTH/PTHrP receptor (Homo sapiens, UniProt Q03431); assay: Cellular phosphate uptake in LLC-PK1 cells expressing human PTHR; type: cell-based; parameters: transfected with a full-length human PTH/PTHrP receptor cDNA; expressed in transfected cells; conditions: HKRK B28 and HKRK B7 cells; peptides 1000 nM, 6 hr
T1 sequence (Q03431 27-593): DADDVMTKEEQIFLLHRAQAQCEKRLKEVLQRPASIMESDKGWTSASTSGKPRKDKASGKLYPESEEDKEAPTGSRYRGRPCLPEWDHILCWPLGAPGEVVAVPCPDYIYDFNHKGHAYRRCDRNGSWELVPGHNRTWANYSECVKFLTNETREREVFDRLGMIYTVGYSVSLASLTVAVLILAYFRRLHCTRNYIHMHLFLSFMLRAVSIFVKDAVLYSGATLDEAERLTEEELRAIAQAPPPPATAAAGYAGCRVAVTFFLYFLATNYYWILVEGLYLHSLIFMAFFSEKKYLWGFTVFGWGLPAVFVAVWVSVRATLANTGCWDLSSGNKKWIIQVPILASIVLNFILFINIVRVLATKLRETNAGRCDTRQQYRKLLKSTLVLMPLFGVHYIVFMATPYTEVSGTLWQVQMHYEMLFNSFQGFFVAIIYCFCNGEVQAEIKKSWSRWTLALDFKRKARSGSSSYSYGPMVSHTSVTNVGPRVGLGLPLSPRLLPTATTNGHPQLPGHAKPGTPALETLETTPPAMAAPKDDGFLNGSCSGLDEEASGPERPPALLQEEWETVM
Protocol: FIG. 8. Regulation of phosphate uptake by PTH in HKRK B7 and HKRK B28 cells. […] Results are expressed as percentage of basal, and each bar represents the mean±SEM of a representative experiment performed in triplicate. Similar results were obtained from at least 5 individual experiments. Cells were seeded into 24-well plates at a density of 2.5×10^5 cells/well and cultured for a further 2 days before study. Twenty four hours before assay, cells were refed with 0.5 ml of DMEM containing 0.1% BSA. The next day, cells were refed with serum-free medium (DMEM+0.1% BSA) containing drugs or peptides, and the incubations were continued at 37° C. under 5% CO2 in air for another 6 hr. Cells then were washed with prewarmed Buffer B without BSA and Na2HPO4 and then were incubated at 37° C. for 5 min in 0.25 ml of the same buffer containing [^32P]orthophosphate (4 uCi/ml) and 0.1 mM Na2HPO4. Phosphate uptake was arrested by adding 1 ml of ice-cold sodium-free “stop buffer” [10 mM HEPES (pH 7.4), 140 mM choline chloride, and 5 mM sodium arsenate], followed by two further washes with same buffer. The drained cell layer then was solubilized in 0.5 ml of Lysis Buffer, and cell-associated radioactivity was determined by Cerenkov counting, as previously described (Guo, J., et al., Endocrinology 136:3884-3891 (1995)).

human PTH/PTHrP receptor [2] = biological target: T1, human PTH/PTHrP receptor; assay: Urokinase-type plasminogen activator (u-PA) secretion bioassay in LLC-PK1 cells expressing human PTHR; conditions: for secreted u-PA: peptide 1000 nM, 16 hr, mean±SEM
Protocol: Cells were seeded into 96-well plates at a density of 6×10^4 cells/well and used the following day. The cells were washed once with 0.2 ml and then refed with 0.1 ml of prewarmed DMEM containing 0.05% BSA. After adding each stimulator, plates were returned to the incubator at 37° C. for 16 h. Conditioned medium (5 ul) then was transferred from each well to a clean microplate. […] Activity was expressed in Ploug units/well, using purified human urokinase (Calbiochem) as a standard.
Cells were incubated with the indicated peptides (1000 nM) for 16 hr before measurement of secreted u-PA present in the medium, which was expressed as a percentage of the activity measured in vehicle-treated controls. Values shown are means±SEM of triplicate determinations.

human PTH/PTHrP receptor [3] = biological target: T1, human PTH/PTHrP receptor; assay: IP3 production (PLC activation) in LLC-PK1 cells expressing human PTHR; type: cell-based; parameters: transfected with a full-length human PTH/PTHrP receptor cDNA; expressed in transfected cells; conditions: for activation of PLC (in words): 1000 nM, HKRK B28 at 4 min and HKRK B7 at 30 min; for formation of IP3 (activation of phospholipase-C): peptide 1000 nM, mean±SEM
Protocol: Cells were seeded into 24-well plates at a density of 2.5×10^5 cells/well and cultured for a further 2 days before study. The cells were labeled at 37° C. for 16 h before assay with 3 uCi/ml of [^3H]myo-inositol in assay medium (serum- and inositol-free DMEM (GIBCO-BRL, Grand Island, N.Y.) supplemented with 0.1% BSA). After washing the cells with prewarmed assay medium containing 30 mM LiCl, they were incubated with 0.25 ml of assay medium containing 30 mM LiCl and stimulators (or vehicle) at 37° C. for various intervals(1-30 min). IP3 formation was arrested by aspiration and immediate addition of 0.5 ml of ice-cold 5% TCA. The acid extracts then were extracted twice with two volumes of water-saturated ether and adjusted to pH 7.4 with concentrated NaOH and Tris base (final concentration=10 mM) prior to chromatography on AG 1×8 anion-exchange columns (Bio-Rad, Richmond, Calif.), as previously described (Guo, J., et al., Endocrinology 136:3884-3891 (1995)). After eluting other fractions (free [^3H]myo-inositol, glycerophosphate inositol, IP1, and IP2), IP3 fractions were collected and their content of radioactivity was determined by liquid scintillation spectrometry (Beckman, model LS 6000IC).
HKRK B7 cells and HKRK B28 cells, previously loaded with [^3H]myo-inositol, were incubated with each peptide (1000 nM) for 30 min or 4 min, respectively. The formation of IP3 is expressed as a percentage of the amount measured in vehicle-treated controls. Values shown are means±SEM of triplicate determinations.

human PTH/PTHrP receptor [4] = biological target: T1, human PTH/PTHrP receptor; assay: Cellular cAMP accumulation in LLC-PK1 cells expressing human PTHR; type: cell-based; parameters: transfected with a full-length human PTH/PTHrP receptor cDNA; expressed in transfected cells; conditions: HKRK B28 cells; for activation of AC (in words): similar in HKRK B7
Protocol: Cells were seeded into 24-well plates at a density of 2.5×10^5 cells/well and cultured for a further 2 days before study. The cells were rinsed once with 0.5 ml of ice-cold Buffer B [10 mM HEPES (pH 7.4), 130 mM NaCl, 5 mM KCl, 1.2 mM CaCl2, 1 mM MgCl2, 1.2 mM Na2HPO^4 5 mM glucose, and 0.1% heat-inactivated BSA] supplemented with 1 mM isobtylmethylxanthine (IBMX), and placed on ice. Treatments were added to each well in 0.25 ml of IBMX-supplemented Buffer B, after which the plates were incubated at 37° C. for 15 min. The buffer then was rapidly aspirated, the plates were rapidly transferred onto liquid nitrogen, and the frozen monolayers were subsequently thawed directly into 0.5 ml of 50 mM HCl. The extracted cAMP then was measured using a commercial RIA kit (Dupont-New England Nuclear, Boston, Mass.). Results were expressed as fold-basal, where basal levels ranged between 38 and 128 pmol/mg protein/15 min. The basal level of cAMP accumulation in native LLC-PK1 cells was not consistently altered in subclones that expressed wild type PTH/PTHrp receptors.
Maximal PTH-dependent cAMP accumulation was assessed in the human PTHR-transfected LLC-PK1 subclones following incubation for 15 min with a high concentration (1000 nM) of hPTH(1-34) (Table 1). As reported previously for LLC-PK1 cells that stably expressed rat PTHRs (Guo, J., et al., Endocrinology 136:3884-3891 (1995)), the maximal adenylyl cyclase response was relatively independent of the surface density of human PTHRs above a relatively low threshold (relative to that required for PLC activation—see below). In the case of the human PTHR, however, this threshold for saturation of maximal AC activation appeared to lie between 120,000 and 280,000 (Table 1), which is at least 6 to 10-fold higher than that previously observed for the rat PTHR (Guo, J., et al., Endocrinology 136:3884-3891 (1995)).

human PTH/PTHrP receptor [5] = biological target: T1, human PTH/PTHrP receptor; assay: Cytosolic free calcium (fura-2) in LLC-PK1 cells expressing human PTHR; conditions: 100 nM peptide; HKRK B7 cells
Protocol: Cytosolic free calcium was measured in fura 2AM-loaded confluent monolayers of cells.
Cytosolic free calcium was measured by dual fluorescence in cells loaded with the Ca^2+-sensitive intracellular probe fura-2. Cells were seeded onto glass coverslips at a density of 40,000-600,000/cm^2 and incubated for 2 days as described above. Coverslips were washed twice with PBS before loading in phosphate-free Buffer B containing 4 uM of fura-2/AM (Molecular Probes, Eugene, Oreg.) for 30 min at room temperature (22° C.). After washing twice with fura-free Buffer B, the coverslips were mounted in a cuvette containing 2 ml of phosphate-free Buffer B at 37° C. and the emission at 510 nm in response to alternating excitation at 340 and 380 nm was monitored using a ratiometric PTI Deltascan fluorescence spectrometer with excitation and emission bandwidths of 2 nm. After achieving a stable baseline, agonists were introduced by exchange into 2 ml of fresh buffer to which 10-20 ul of concentrated agonist stock (or vehicle alone) had been added. Peptide stocks were prepared in 0.1% trifluoroacetic acid, ionomycin and phorbol esters were dissolved in dimethyl sulfoxide and all other additives were prepared in water. Maximum and minimum fluorescence signals were obtained by exposure to modified buffers containing 1 uM ionomycin plus 20 mM calcium or 2 mM EGTA in the nominal absence of calcium, respectively, and autofluorescence was estimated from signals obtained in the presence of ionomycin plus 2.5 mM MnCl2.

[6] = HKRK B7 cells, 30 min stimulation
[7] = HKRK B28 cells, 4 min stimulation

Substance | maximal activation of phosphate uptake (in words) (human PTH/PTHrP receptor [1]) | secreted u-PA (human PTH/PTHrP receptor [2]; HKRK B7 cells) | secreted u-PA (human PTH/PTHrP receptor [2]; HKRK B28 cells) | activation of PLC (in words) (human PTH/PTHrP receptor [3]) | formation of IP3 (activation of phospholipase-C) (human PTH/PTHrP receptor [3]; [6]) | formation of IP3 (activation of phospholipase-C) (human PTH/PTHrP receptor [3]; [7]) | activation of AC (in words) (human PTH/PTHrP receptor [4]) | u-PA bioassay activity (in words) (human PTH/PTHrP receptor [2]; HKRK B7 and HKRK B28 cells) | cytosolic free calcium transients (human PTH/PTHrP receptor [5]) | u-PA bioassay activity, % of maximal response to hPTH(1-34) (human PTH/PTHrP receptor [2]; HKRK B7 and HKRK B28 cells) | concentrations at which AC was stimulated significantly (human PTH/PTHrP receptor [4]) [nM] | cAMP response as % of the maximal response to hPTH(1-34) (human PTH/PTHrP receptor [4]; 1000 nM peptide) [%]
hPTHrp(1-36) | comparable maximal activation of phosphate uptake | 88 ± 5 percentage of the activity measured in vehicle-treated controls | 97 ± 9 percentage of the activity measured in vehicle-treated controls | stimulated PLC equivalently to hPTH(1-34) | 93 ± 6 percentage of vehicle-treated | 160 ± 9 percentage of vehicle-treated | indistinguishable from that to hPTH(1-34) | – | – | – | – | –
hPTH(7-34) (LMHNLGKHLNSMERVEWLRKKLQDVHNF; Parathyroid hormone; UniProt P01270 38-65, looked up, fragment) [amino-terminally truncated human PTH analog] | inactive | 1 ± 1 percentage of the activity measured in vehicle-treated controls | 0 ± 2 percentage of the activity measured in vehicle-treated controls | neither hPTH(3-34) nor hPTH(7-34) activated PLC significantly | 122 ± 7 percentage of vehicle-treated | 92 ± 10 percentage of vehicle-treated | failed to activate AC at all concentrations tested | inactive | neither hPTH(3-34) nor hPTH(7-34) (100 nM) induced this response | – | – | –
hPTH(3-34) (SEIQLMHNLGKHLNSMERVEWLRKKLQDVHNF-NH2; UniProt P01270 34-65, looked up, fragment) [amino-terminally truncated human PTH analog] | inactive | 57 ± 3 percentage of the activity measured in vehicle-treated controls | 50 ± 1 percentage of the activity measured in vehicle-treated controls | neither hPTH(3-34) nor hPTH(7-34) activated PLC significantly | 103 ± 1 percentage of vehicle-treated | 85 ± 9 percentage of vehicle-treated | – | – | neither hPTH(3-34) nor hPTH(7-34) (100 nM) induced this response | 50-60% | ≥ 10 | 16
